B1: human MRS2 amino terminal domain, residues 58-333 (MRS2_(58‐333)), wild type (domain or fragment, UniProt Q9HD23-1 58-333, looked up)
chain: DRLRVAGEVHRFRTSDVSQATLASVAPVFTVTKFDKQGNVTSFERKKTELYQELGLQARDLRFQHVMSITVRNNRIIMRMEYLKAVITPECLLILDYRNLNLEQWLFRELPSQLSGEGQLVTYPLPFEFRAIEALLQYWINTLQGKLSILQPLILETLDALVDPKHSSVDRSKLHILLQNGKSLSELETDIKIFKESILEILDEEELLEELCVSKWSDPQVFEKSSAGIDHAEEMELLLENYYRLADDLSNAARELRVLIDDSQSIIFINLDSHRN
notes: Mitochondrial RNA splicing protein 2 (MRS2), human, amino terminal (matrix) domain, residues 58-333 of NCBI NP_065713.1 (pre-protein numbering); theoretical monomer 32.5 kDa including cloning artifacts; Surmise: E. coli, His tag removed by protease; also called MRS2‐NTD; WT; source: recombinantly expressed and purified, as described previously (Uthayabalan et al., 2023)
B2: human MRS2 amino terminal domain, residues 58-333, D216Q mutant (MRS2_(58‐333)‐D216Q) (domain or fragment, UniProt Q9HD23-1 58-333, looked up)
chain: DRLRVAGEVHRFRTSDVSQATLASVAPVFTVTKFDKQGNVTSFERKKTELYQELGLQARDLRFQHVMSITVRNNRIIMRMEYLKAVITPECLLILDYRNLNLEQWLFRELPSQLSGEGQLVTYPLPFEFRAIEALLQYWINTLQGKLSILQPLILETLQALVDPKHSSVDRSKLHILLQNGKSLSELETDIKIFKESILEILDEEELLEELCVSKWSDPQVFEKSSAGIDHAEEMELLLENYYRLADDLSNAARELRVLIDDSQSIIFINLDSHRN
notes: theoretical monomer 32,517 Da; construct details in Uthayabalan et al., 2023; also called MRS2‐NTD‐D216Q; source: recombinantly expressed and purified as described for MRS2_(58‐333) (Uthayabalan et al., 2023)
B3: human MRS2 amino terminal domain, residues 58-333, E261Q mutant (MRS2_(58‐333)‐E261Q) (domain or fragment, UniProt Q9HD23-1 58-333, looked up)
chain: DRLRVAGEVHRFRTSDVSQATLASVAPVFTVTKFDKQGNVTSFERKKTELYQELGLQARDLRFQHVMSITVRNNRIIMRMEYLKAVITPECLLILDYRNLNLEQWLFRELPSQLSGEGQLVTYPLPFEFRAIEALLQYWINTLQGKLSILQPLILETLDALVDPKHSSVDRSKLHILLQNGKSLSELETDIKIFKESILEILDQEELLEELCVSKWSDPQVFEKSSAGIDHAEEMELLLENYYRLADDLSNAARELRVLIDDSQSIIFINLDSHRN
notes: construct details in Uthayabalan et al., 2023; also called MRS2‐NTD‐E261Q; source: recombinantly expressed and purified as described for MRS2_(58‐333) (Uthayabalan et al., 2023)

Legend:
[1] = target: the molecule itself; assay: AUC; sedimentation equilibrium, 1.25 mg/mL protein, no Mg2+, 20°C, 20 mM Tris, 150 mM NaCl, 1 mM DTT, pH 8.0; global fit of 8000, 12,000, 16,000 and 20,000 rpm; dimer to monomers
[2] = target: the molecule itself; assay: AUC; sedimentation equilibrium, 0.313 mg/mL protein, with 5 mM MgCl2, 20°C, 20 mM Tris, 150 mM NaCl, 1 mM DTT, pH 8.0; global fit of 8000, 12,000, 16,000 and 20,000 rpm; dimer to monomers
[3] = target: the molecule itself; assay: AUC; sedimentation equilibrium, 0.625 mg/mL protein, no Mg2+, 20°C, 20 mM Tris, 150 mM NaCl, 1 mM DTT, pH 8.0; global fit of 8000, 12,000, 16,000 and 20,000 rpm; dimer to monomers
[4] = target: the molecule itself; assay: AUC; sedimentation equilibrium, 0.313 mg/mL protein, no Mg2+, 20°C, 20 mM Tris, 150 mM NaCl, 1 mM DTT, pH 8.0; global fit of 8000, 12,000, 16,000 and 20,000 rpm; dimer to monomers
[5] = target: the molecule itself; assay: AUC; sedimentation equilibrium, 0.625 mg/mL protein, with 5 mM MgCl2, 20°C, 20 mM Tris, 150 mM NaCl, 1 mM DTT, pH 8.0; global fit of 8000, 12,000, 16,000 and 20,000 rpm; dimer to monomers
[6] = target: the molecule itself; assay: SEC-MALS; Superdex 200 Increase 10/300 GL, 100 uL injected at 2.5 mg/mL, 20 mM Tris pH 8, 150 mM NaCl, 1 mM DTT, ~10°C, buffer nominally free of Mg2+
[7] = target: the molecule itself; assay: AUC; sedimentation equilibrium, 1.25 mg/mL protein, with 5 mM MgCl2, 20°C, 20 mM Tris, 150 mM NaCl, 1 mM DTT, pH 8.0; global fit of 8000, 12,000, 16,000 and 20,000 rpm; dimer to monomers

Protein	Kd [1]	stoichiometry N [1]	Kd [2]	stoichiometry N [2]	Kd [3]	stoichiometry N [3]	Kd [4]	stoichiometry N [4]	Kd [5]	stoichiometry N [5]	stoichiometry N [6]	Kd [7]	stoichiometry N [7]
B1	16.4 µM	1.7	1760 µM	1	24.3 µM	1.6	17.4 µM	1.7	146 µM	1.1	2	55.4 µM	1.5
B2			11.2 µM	2					22.2 µM	1.8		33.6 µM	1.6
B3											2		
